Fold decrease in binding activity data for 1 substance are collected here from patent US20040063188A1.

The target in the assay is recombinant HPV-16 L1 VLPs (baculovirus-derived, from Sf-9S insect cells) (human papillomavirus type 16) (UniProt P03101). Put plainly: ELISA; 1000 ng VLPs mixed with infected-cell supernatants; reference is the same pair with VLPs in buffer or in sucrose (FIG. 11).
Chain of UniProt P03101 (P03101 whole entry): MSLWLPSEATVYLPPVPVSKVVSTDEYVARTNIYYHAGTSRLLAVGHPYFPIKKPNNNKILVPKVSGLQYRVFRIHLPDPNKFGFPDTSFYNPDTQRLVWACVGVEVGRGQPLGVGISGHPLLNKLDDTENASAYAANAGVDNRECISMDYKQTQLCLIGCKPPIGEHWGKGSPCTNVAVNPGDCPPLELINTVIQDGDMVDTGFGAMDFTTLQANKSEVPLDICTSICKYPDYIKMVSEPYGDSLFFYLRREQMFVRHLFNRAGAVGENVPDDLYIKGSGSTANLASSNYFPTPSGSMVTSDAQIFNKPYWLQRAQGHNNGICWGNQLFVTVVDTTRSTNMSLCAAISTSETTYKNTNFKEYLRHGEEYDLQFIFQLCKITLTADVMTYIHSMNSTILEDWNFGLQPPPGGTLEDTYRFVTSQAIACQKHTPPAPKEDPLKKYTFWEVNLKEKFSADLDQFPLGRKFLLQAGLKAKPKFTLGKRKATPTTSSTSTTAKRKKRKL

Turning to H16.V5 murine monoclonal antibody, the fold decrease in binding activity worked out at 5 fold.
